Test system: intracellular proteome of ENR+CD and ENR organoids
Assay: LC-MS/MS TMT proteomics of ENR+CD versus ENR organoids
Format: cell-based, C57BL/6 mice
Settings: for Average logFC: ENR+CD versus ENR organoids, sample pairs in aggregate (n=4, 2 technical replicates from two biological donors); for M1-1 Log2 Median Normalized / M1-2 Log2 Median Normalized / M2-1 Log2 Median Normalized / M2-2 Log2 Median Normalized: protein abundance ratio ENR+CD versus ENR organoids, LC-MS/MS TMT proteomics; for M1-1 Log2 Median Normalized: sample pair M1-1; for M1-2 Log2 Median Normalized: sample pair M1-2; for M2-1 Log2 Median Normalized: sample pair M2-1; for M2-2 Log2 Median Normalized: sample pair M2-2; for change: up = enriched in ENR+CD, down = enriched in ENR, FDR<0.05 and log fold change cut-off

Molecule	Average logFC	M1-1 Log2 Median Normalized	M1-2 Log2 Median Normalized	M2-1 Log2 Median Normalized	M2-2 Log2 Median Normalized	change
Q62431 (protein, UniProt Q62431 1-601, looked up, full-length) MKLQAVMETLIQRQQRARQELEARQAPPPPPPEPTGVRARTTMTDEDREPENARMHRTQMAALAAMRAAAAGLGHPSSPGGSEDGPPISGDEDTAREGTLSSPALHGSVLEGAGHAEGDRHLMDVGSDDDDTKSKWEEQELEELGEEEEEEEEEDDFEEEEEEEEGLGPPESASLGTAGLFTRKAPPAQAFRGDGGPRMLSGPERLGPGPAHPSHMASQMPPPDHGDWTFEEQFKQLYELDADPKRKEFLDDLFSFMQKRGTPVNRIPIMAKQVLDLFMLYVLVTEKGGLVEVINKKLWREITKGLNLPTSITSAAFTLRTQYMKYLYPYECERRGLSSPNELQAAIDSNRREGRRQSFGGSLFAYSPSGAHSMLPSPKLPVTPLGLAASTNGSSITPAPKIKKEEDSAIPITVPGRLPVSLAGHPVVAAQAAAVQAAAAQAAVAAQAAALEQLREKLESTEPPEKKMALVADEQQRLMQRAVQQSFLAMTAQLPMNIRINSQASESRQDSAVSLTSANGSNSISMSVEMNGIVYTGVLFAQPPPPTAPSAPGKGGVSSIGTNTTTGSRTGASGSTVSGGQVGLPGVSTPTMSSTSNNSLP	1.251	1.672	1.343	1.2465	0.741	up
Q64176 (protein, UniProt Q64176 1-562, looked up, full-length) MCLSALILVSLAAFTAGAGHPSSPPMVDTVQGKVLGKYISLEGFTQPVAVFLGVPFAKPPLGSLRFAPPQPAEPWSSVKNATSYPPMCFQDPVTGQIVNDLLTNRKEKIPLQFSEDCLYLNIYTPADLTKSDRLPVMVWIHGGGLVLGGASTYDGLVLSTHENVVVVVIQYRLGIWGFFSTGDEHSRGNWGHLDQVAALHWVQDNIAKFGGDPGSVTIFGESAGGESVSVLVLSPLAKNLFQRAISESGVALTAGLVKKNTRPLAEKIAVISGCKNTTSAAMVHCLRQKTEEELLGTTLKLNLFKLDLHGDSRQSHPFVPTVLDGVLLPKMPEEILAEKNFNTVPYIVGINKQEFGWILPTMMNYPPSDVKLDQMTAMSLLKKSSFLLNLPEDAIAVAIEKYLRDKDYTGRNKDQLLELIGDVVFGVPSVIVSRGHRDAGAPTYMYEFQYSPSFSSEMKPDTVVGDHGDEIYSVFGAPILRGGTSEEEINLSKMMMKFWANFARNGNPNGQGLPHWPEYDQKEGYLQIGATTQQAQKLKEKEVAFWTELLAKKQLPTEHTEL	−1.21	−1.21	−1.557	−1.2065	−1.062	down
Q64338 (protein, UniProt Q64338 1-706, looked up, full-length) MESPTKEIEEFESNSLKHLQPEQIEKIWLRLRGLRKYKKTSQRLRSLVKQLERGEASVVDLKKNLEYAATVLESVYIDETRRLLDTEDELSDIQSDAVPSEVRDWLASTFTRQMGMMLRRSDEKPRFKSIVHAVQAGIFVERMYRRTSNMVGLSYPPAVIDALKDVDTWSFDVFSLNEASGDHALKFIFYELLTRYDLISRFKIPISALVSFVEALEVGYSKHKNPYHNLMHAADVTQTVHYLLYKTGVANWLTELEIFAIIFSAAIHDYEHTGTTNNFHIQTRSDPAILYNDRSVLENHHLSAAYRLLQEDEEMNILVNLSKDDWREFRTLVIEMVMATDMSCHFQQIKAMKTALQQPEAIEKPKALSLMLHTADISHPAKAWDLHHRWTMSLLEEFFRQGDREAELGLPFSPLCDRKSTMVAQSQVGFIDFIVEPTFTVLTDMTEKIVSPLIDESSQTGGTGQRRSSLNSINSSDAKRSGVKSSGSDGSAPINNSVIPVDYKSFKATWTEVVQINRERWRAKVPKEEKAKKEAEEKARLAAEEKQKEMEAKSQAEQGTTSKGEKKTSGEAKSQVNGTRKGDNPRGKNSKGEKAGEKQQNGDLKDGKNKADKKDHSNTGNESKKTDGTKKRSHGSPAPSTSSTSRITLPVIKPPLRHFKRPAYASSSYAPSVPKKTDDHPVRYKMLDQRIKMKKIQNISHHWNKK	1.157	0.73	0.722	1.3705	1.805	up
